# Assay results published in patent US10611798B2, “PAR1 and PAR2 c-tail peptides and peptide mimetics” (Hadasit Medical Research Services and Development Ltd., priority 2010, dated 2020).
# Experiments:
# [1] = biological target: T1, PAR1 binding to GST-PH-Etk/Bmx (Homo sapiens, UniProt P51813); assay: Peptide competition for binding of PAR1 cell lysates to GST-PH-Etk/Bmx; conditions: 1-1000 nM applied peptide; Western blot, FIG. 7B/7C
# T1 construct: made in house; host or cells: Escherichia coli (general statement on GST fusion proteins)
# T1 sequence (P51813 4-111 limits assumed): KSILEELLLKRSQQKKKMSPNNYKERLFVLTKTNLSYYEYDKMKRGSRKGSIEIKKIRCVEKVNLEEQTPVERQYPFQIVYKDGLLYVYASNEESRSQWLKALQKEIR
# Experimental: GST fusion protein columns. Fusion proteins were purified from transformed Escherichia coli bacteria that had been stimulated with isopropyl-β-D-thio-galactopyranoside (IPTG) at a concentration of […]. Bacteria were lysed according to published procedures, and then immobilized on glutathione Sepharose beads (Pharmacia). Briefly, MDA-MB-435 cell lysates were applied to GST-PAR1 C-tail or GST control columns. After 2 h binding periods to the designated protein/s cell lysates to the columns, a washing step was performed. The washes (×3) were carried out using a “wash buffer” including: 100 mM NaCL, 20 mM EDTA, 10 mM Tris, pH 8.0 and 1% Triton ×100. This step was performed in order to wash out all non-specific proteins, leaving the GST-PAR1-C-tail column firmly bound to targeted cell lysate proteins. Next, elution of bound proteins was performed via the addition of gel “sample buffer” and appropriate boiling. The samples were run electrophoretically on SDS-PAGE gels, followed by immunoblotting with the indicated antibodies and ECL detection.
# GST-PH-Etk/Bmx. The PH domain in Etk/Bmx was bound to GST column as previously described (Chen R, et al. (2001) Nat Cell Biol. 3: 439-444). Purification of PAR1 C-tail fragments. PAR1 C-tail fragments were generated using a “thrombin cleavage capture kit” (Novagen, Madison, Wis.; Cat no. 69022-3). The enzyme used for the cleavage was biotinylated human thrombin. Briefly, the cleavage was performed according to the manufacturer instructions. Biotinylated thrombin was removed from the cleavage reaction using streptavidin agarose beads, and the cleaved peptides (e.g., wt PAR1-C-tail and Y38 1A C-tail) were isolated and loaded on a GST-Etk-PH column. After incubation for 4 h the purified fragments were applied onto the GST-PH-Etk/Bmx column and detected following gel separation and western blotting analysis using anti-PAR1 antibodies (ATAP, Santa Cruz, Calif. ).
# Identification of PAR1-Etk/Bmx binding region: functional consequences. […]
# MDA-MB-435 cells = assay: Wound assay (cell migration) in MDA-MB-435 cell monolayer; format: cell-based, human; conditions: MDA-MB-435 monolayer, 24 h, PAR1 activation; compared to control untreated cells; FIG. 9D
# Experimental: In a parallel experiment, a wound assay for determining the rate of cell migration, showing the ability of the cells to fill in gaps in an MDA-MB-435 cell monolayer, was performed. MDA-MB-435 cell monolayer expressing endogenous Etk/Bmx was scratched to introduce an equal gap-area under the following conditions: control untreated cells, TFLLRNPNDK-activated or SiRNA-Etk/Bmx and TFLLRNPNDK-activated. […] Similar inhibition was obtained in the presence of the PAR1 antagonist, SCH 79797 (FIG. 9D, bottom panel), pointing to the important role of both PAR1 and Etk/Bmx in wound closure/migration of PAR1-activated MDA-MB-435 cells.
# [2] = biological target: T2, association between Etk/Bmx and PAR1-C-tail (Homo sapiens, UniProt P51813); assay: Competition experiment: co-immunoprecipitation of HA-PAR1 and T7-tagged Etk/Bmx in MCF7 clones; format: cell-based; conditions: 20 minutes after activation by thrombin or TFLLRN, IP anti-HA, blot anti-T7, FIG. 22
# T2 construct: expressed in transfected cells
# T2 sequence (P51813 1-675): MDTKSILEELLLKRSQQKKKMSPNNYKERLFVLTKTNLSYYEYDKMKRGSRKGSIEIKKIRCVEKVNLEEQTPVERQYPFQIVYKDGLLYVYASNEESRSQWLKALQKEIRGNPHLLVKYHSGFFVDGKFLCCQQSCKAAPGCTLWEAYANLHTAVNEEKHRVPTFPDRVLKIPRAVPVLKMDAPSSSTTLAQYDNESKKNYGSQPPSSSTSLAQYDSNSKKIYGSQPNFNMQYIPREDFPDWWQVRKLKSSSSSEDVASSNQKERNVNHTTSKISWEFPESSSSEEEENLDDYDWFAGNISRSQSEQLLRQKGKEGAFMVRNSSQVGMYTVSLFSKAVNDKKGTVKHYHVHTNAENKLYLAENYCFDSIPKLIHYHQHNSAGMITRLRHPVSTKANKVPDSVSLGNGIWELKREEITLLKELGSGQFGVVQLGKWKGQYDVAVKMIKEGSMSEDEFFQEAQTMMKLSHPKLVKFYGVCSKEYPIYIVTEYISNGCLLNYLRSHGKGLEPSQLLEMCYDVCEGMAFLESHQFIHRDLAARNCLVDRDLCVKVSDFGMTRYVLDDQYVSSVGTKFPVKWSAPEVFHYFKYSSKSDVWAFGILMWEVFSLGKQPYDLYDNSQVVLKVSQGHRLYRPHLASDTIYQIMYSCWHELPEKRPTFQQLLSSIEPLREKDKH
# Experimental: Western blot and immunoprecipitation analysis: Cells were activated with agonist peptide TFLLRNPNDK (SEQ ID NO: 35) for the indicated periods of time and solubilized in lysis buffer containing 10 mM Tris-HCl, pH 7.4, 150 mM NaCl, 1 mM EDTA, 1% TritonX-100, and protease inhibitors ([…] aprotinin, 1 mM phenylmethylsulfonylfluoride, and […] leupeptin) at 4° C. for 30 min. The cell lysates were subjected to centrifugation at 12,000 rpm at 4° C. for 20 min. We used 400 μg of the supernatants with anti-PAR1 (ATAP, Santa Cruz, Calif. 1 μg), anti-HA (anti-HA sc-7392; Santa Cruz, Calif.), anti-Shc or Etk/Bmx antibodies (10 μg/ml). After overnight incubation, Protein A-Sepharose beads (Amersham Pharmacia Biotech, Buckinghamshire, UK) were added to the suspension (50 μl ), which was rotated at 4° C. for 1 h. The immunocomplexes were eluted and run electrophoretically on a 10% SDS-PAGE gel, followed by transfer to an Immobilon-P membrane (Millipore). Membranes were blocked and probed with 1 μg/ml amounts of the appropriate antibodies as follows: anti-PAR1 thrombin receptor mAb, (ATAP, from Santa Cruz, 1:1000); anti-Shc (BD, 1:2000); anti-Bmx (Transduction Laboratories, 1:1000) or anti-PY (Upstate 4G10, 1:2500), suspended in 3% BSA in 10 mM Tris-HCl, pH 7.5, 100 mM NaCl, and 0.5% Tween-20. […] Immunoreactive bands were detected by enhanced chemiluminescence (ECL). […]
Compound,competition for the binding of PAR1 cell lysates to GST-PH-Etk/Bmx [1],closure of the wound / migration (MDA-MB-435 cells),other results
"residues 393-412: peptide representing PAR1 C-tail residues 393-412 (DPSSYNSSGQLMASKMDTCS; UniProt P25116 393-412, looked up, fragment)",did not compete,–,–
"peptide 5: peptide representing PAR1 C-tail 387-400 (CCKESSDPSSYNSS; UniProt P25116 387-400, looked up, fragment)",did not compete,–,–
"peptide 4: 18-amino-acid peptide encompassing residues 375-392 of PAR1 C-tail (SSECQRYVYSILCCKESS; UniProt P25116 375-392, looked up, fragment)",dose-dependent inhibition,–,–
TFLLRNPNDK (listed as Homo sapiens),–,Rapid closure of the wound,–
CC(C)c1ccc(Cn2ccc3c4c(N)nc(NC5CC5)nc4ccc32)cc1 [SCH79797],–,attenuated wound closure,–
SSECQRYVYSIL (listed as Homo sapiens) [NH2-SSECQRYVYSIL-COOH],–,–,association between Etk/Bmx and PAR1-C-tail in the presence of the peptide [2]: No binding is observed
